Source: patent publication US10583167B2, “Mammalian glucosidase inhibitors, methods for their use and pharmaceutical compositions thereof” (THE UNIVERSITY OF BRITISH COLUMBIA, priority 2015, dated 2020)
Entries after “also recorded” stand apart in the source; their conditions may differ. Bridges are numbered along the chain shown (N, C = ends).

Columns and labels:
mammalian alpha-amylase = biological target: T1, mammalian alpha-amylase (Homo sapiens, UniProt P04746); experiment: Inhibitory activity of truncated and fusion peptides; type: biochemical; details: for Inhibitory Activity: truncated peptides
T1 sequence (P04746 16-511): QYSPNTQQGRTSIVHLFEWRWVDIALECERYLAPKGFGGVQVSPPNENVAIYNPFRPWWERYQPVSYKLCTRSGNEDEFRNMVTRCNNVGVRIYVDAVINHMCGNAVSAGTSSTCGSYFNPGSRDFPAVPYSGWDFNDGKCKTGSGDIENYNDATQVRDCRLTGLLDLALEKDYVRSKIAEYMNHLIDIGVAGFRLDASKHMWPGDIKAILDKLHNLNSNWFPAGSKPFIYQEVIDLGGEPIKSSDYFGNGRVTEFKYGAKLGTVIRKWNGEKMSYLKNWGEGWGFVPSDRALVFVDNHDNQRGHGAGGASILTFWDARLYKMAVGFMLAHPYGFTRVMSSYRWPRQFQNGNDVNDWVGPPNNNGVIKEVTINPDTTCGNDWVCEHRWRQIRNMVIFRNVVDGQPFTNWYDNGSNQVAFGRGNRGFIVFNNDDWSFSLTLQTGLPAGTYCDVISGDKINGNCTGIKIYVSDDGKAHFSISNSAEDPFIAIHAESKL

[1] = 11M HCl at 37° C. for four days, HPLC
Procedure: The sample was diluted and neutralized before desalting by C18 reverse phase chromatography. The peptide mixture was injected into an Agilent™ 6460 QQQ LC/MS mass spectrometer. Elution and MS/MS analysis was carried out over a 40-minute period. A script was written to predict all possible fragments for the helianthamide sequence in the event of random hydrolysis and was used to analyze the resulting MS and MS/MS peaks.
Intact peptide was incubated in 11M HCl at 37° C. for four days.

[2] = test system: trypsin, chymotrypsin, proteinase K, and Lys-C
Almond β-glucosidase = experiment: Inhibitory specificity: kinetic analysis; type: biochemical; details: up to 1 μM
Procedure: (§1) Assays were performed on a Varian Cary 300™ UV/Vis spectrophotometer. The release of 2-chloro-nitrophenol resulting from the amylase catalyzed hydrolysis of 2-chloro-p-nitrophenyl-α-D-maltotrioside was monitored at 400 nm. Reactions were run at 30° C. in 50 mM sodium phosphate, 100 mM sodium chloride (pH 7.0). Reactions were monitored over 5 minutes to measure the initial reaction rate. […] Reactions were run with a final [CNPG3]=5 mM. […] Up to 5 different enzyme concentrations were used, ranging from 1 nM to 10 nM. v/vo was plotted against [I] for each enzyme concentration to form a series of dose response curves. […] Kiapp was then used to calculate Ki. […] Details of this process can be found in the work done by Tarling et al. (33). After kinetic analysis with HPA, nine additional enzymes were tested against helianthamide. Concentrations of up to 1 μM of Helianthamide were used to assess for inhibition.
(§2) Inhibition of nine other glycosidases was explored (TABLE 4).

[3] = biological target: Bovine liver β-galactosidase; experiment: Inhibitory specificity: kinetic analysis; type: biochemical; details: up to 1 μM
Procedure: as §1, §2

[4] = biological target: T2, Green coffee bean α-galactosidase (Coffea arabica, UniProt Q42656); experiment: Inhibitory specificity: kinetic analysis; type: biochemical; details: up to 1 μM
T2 construct: Green coffee bean α-galactosidase; from tissue; host or cells: green coffee beans
T2 sequence (Q42656 16-378): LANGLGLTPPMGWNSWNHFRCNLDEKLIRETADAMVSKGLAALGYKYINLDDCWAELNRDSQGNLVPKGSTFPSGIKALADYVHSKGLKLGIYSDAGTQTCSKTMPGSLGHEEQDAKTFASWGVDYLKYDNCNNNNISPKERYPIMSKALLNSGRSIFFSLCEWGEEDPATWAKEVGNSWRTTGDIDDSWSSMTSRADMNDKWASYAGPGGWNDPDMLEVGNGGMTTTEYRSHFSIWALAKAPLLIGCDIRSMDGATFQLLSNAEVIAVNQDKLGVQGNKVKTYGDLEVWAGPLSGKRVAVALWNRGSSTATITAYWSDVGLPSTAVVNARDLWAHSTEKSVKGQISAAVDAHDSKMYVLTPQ
Procedure: as §1, §2

[5] = biological target: Bacillus licheniformis α-amylase (Bacillus licheniformis, UniProt P06278); experiment: Inhibitory specificity: kinetic analysis; type: biochemical; details: up to 1 μM
Sequence of Bacillus licheniformis α-amylase (P06278 30-512): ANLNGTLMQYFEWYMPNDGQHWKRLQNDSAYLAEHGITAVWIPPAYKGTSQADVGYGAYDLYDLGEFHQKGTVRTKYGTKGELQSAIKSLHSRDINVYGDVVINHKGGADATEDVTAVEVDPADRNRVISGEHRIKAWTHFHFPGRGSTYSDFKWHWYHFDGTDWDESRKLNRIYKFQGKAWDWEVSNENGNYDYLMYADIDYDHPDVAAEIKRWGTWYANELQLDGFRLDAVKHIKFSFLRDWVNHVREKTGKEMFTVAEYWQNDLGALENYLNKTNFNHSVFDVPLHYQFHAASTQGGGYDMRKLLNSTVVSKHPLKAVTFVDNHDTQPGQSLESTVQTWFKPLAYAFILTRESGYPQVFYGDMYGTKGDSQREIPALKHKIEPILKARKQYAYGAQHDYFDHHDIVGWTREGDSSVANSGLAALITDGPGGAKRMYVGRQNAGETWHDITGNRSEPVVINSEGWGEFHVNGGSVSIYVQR
Procedure: as §1, §2

[6] = biological target: Roseburia inulinivorans α-amylase A; experiment: Inhibitory specificity: kinetic analysis; type: biochemical; details: up to 1 μM
Procedure: as §1, §2

[7] = biological target: Butyrivibrio fibrisolvens α-amylase B; experiment: Inhibitory specificity: kinetic analysis; type: biochemical; details: up to 1 μM
Procedure: as §1, §2

Jack bean α-mannosidase = biological target: T3, Jack bean α-mannosidase (Canavalia ensiformis, UniProt C0HJB3); experiment: Inhibitory specificity: kinetic analysis; type: biochemical; details: up to 1 μM
T3 construct: Jack bean α-mannosidase; from tissue; host or cells: jack bean
T3 sequence (C0HJB3 1-981): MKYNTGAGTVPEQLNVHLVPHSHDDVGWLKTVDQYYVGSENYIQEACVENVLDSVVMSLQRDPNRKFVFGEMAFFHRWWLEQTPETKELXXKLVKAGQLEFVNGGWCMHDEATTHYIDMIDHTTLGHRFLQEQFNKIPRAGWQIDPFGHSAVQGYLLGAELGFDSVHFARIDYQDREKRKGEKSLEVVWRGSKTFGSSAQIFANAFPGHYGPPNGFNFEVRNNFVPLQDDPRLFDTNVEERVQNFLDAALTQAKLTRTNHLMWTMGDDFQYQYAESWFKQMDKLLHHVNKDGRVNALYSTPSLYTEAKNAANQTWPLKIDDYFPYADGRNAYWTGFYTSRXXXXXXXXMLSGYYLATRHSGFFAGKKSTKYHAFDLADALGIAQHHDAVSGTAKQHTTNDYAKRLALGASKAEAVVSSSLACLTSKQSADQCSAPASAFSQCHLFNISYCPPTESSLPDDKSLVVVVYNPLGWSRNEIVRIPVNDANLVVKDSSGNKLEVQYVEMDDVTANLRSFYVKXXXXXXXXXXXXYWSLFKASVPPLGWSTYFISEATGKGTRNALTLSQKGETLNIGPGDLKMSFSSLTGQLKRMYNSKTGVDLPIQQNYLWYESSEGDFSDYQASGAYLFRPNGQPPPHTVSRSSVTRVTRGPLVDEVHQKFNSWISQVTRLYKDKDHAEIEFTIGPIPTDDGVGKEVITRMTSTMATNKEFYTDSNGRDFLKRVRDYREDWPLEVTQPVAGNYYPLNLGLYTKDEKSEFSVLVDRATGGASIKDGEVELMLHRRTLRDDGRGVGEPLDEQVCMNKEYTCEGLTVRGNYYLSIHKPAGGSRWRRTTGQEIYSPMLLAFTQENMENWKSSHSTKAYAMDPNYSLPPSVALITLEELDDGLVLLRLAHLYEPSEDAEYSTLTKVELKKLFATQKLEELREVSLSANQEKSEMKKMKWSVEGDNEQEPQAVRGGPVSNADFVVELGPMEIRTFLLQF
Procedure: as §1, §2

[8] = biological target: Brewer's yeast α-glucosidase; experiment: Inhibitory specificity: kinetic analysis; type: biochemical; details: up to 1 μM
Procedure: as §1, §2

[9] = biological target: Human maltase-glucoamylase (Homo sapiens, UniProt O43451); experiment: Inhibitory specificity: kinetic analysis; type: biochemical; details: up to 1 μM
Sequence of Human maltase-glucoamylase (O43451 whole entry): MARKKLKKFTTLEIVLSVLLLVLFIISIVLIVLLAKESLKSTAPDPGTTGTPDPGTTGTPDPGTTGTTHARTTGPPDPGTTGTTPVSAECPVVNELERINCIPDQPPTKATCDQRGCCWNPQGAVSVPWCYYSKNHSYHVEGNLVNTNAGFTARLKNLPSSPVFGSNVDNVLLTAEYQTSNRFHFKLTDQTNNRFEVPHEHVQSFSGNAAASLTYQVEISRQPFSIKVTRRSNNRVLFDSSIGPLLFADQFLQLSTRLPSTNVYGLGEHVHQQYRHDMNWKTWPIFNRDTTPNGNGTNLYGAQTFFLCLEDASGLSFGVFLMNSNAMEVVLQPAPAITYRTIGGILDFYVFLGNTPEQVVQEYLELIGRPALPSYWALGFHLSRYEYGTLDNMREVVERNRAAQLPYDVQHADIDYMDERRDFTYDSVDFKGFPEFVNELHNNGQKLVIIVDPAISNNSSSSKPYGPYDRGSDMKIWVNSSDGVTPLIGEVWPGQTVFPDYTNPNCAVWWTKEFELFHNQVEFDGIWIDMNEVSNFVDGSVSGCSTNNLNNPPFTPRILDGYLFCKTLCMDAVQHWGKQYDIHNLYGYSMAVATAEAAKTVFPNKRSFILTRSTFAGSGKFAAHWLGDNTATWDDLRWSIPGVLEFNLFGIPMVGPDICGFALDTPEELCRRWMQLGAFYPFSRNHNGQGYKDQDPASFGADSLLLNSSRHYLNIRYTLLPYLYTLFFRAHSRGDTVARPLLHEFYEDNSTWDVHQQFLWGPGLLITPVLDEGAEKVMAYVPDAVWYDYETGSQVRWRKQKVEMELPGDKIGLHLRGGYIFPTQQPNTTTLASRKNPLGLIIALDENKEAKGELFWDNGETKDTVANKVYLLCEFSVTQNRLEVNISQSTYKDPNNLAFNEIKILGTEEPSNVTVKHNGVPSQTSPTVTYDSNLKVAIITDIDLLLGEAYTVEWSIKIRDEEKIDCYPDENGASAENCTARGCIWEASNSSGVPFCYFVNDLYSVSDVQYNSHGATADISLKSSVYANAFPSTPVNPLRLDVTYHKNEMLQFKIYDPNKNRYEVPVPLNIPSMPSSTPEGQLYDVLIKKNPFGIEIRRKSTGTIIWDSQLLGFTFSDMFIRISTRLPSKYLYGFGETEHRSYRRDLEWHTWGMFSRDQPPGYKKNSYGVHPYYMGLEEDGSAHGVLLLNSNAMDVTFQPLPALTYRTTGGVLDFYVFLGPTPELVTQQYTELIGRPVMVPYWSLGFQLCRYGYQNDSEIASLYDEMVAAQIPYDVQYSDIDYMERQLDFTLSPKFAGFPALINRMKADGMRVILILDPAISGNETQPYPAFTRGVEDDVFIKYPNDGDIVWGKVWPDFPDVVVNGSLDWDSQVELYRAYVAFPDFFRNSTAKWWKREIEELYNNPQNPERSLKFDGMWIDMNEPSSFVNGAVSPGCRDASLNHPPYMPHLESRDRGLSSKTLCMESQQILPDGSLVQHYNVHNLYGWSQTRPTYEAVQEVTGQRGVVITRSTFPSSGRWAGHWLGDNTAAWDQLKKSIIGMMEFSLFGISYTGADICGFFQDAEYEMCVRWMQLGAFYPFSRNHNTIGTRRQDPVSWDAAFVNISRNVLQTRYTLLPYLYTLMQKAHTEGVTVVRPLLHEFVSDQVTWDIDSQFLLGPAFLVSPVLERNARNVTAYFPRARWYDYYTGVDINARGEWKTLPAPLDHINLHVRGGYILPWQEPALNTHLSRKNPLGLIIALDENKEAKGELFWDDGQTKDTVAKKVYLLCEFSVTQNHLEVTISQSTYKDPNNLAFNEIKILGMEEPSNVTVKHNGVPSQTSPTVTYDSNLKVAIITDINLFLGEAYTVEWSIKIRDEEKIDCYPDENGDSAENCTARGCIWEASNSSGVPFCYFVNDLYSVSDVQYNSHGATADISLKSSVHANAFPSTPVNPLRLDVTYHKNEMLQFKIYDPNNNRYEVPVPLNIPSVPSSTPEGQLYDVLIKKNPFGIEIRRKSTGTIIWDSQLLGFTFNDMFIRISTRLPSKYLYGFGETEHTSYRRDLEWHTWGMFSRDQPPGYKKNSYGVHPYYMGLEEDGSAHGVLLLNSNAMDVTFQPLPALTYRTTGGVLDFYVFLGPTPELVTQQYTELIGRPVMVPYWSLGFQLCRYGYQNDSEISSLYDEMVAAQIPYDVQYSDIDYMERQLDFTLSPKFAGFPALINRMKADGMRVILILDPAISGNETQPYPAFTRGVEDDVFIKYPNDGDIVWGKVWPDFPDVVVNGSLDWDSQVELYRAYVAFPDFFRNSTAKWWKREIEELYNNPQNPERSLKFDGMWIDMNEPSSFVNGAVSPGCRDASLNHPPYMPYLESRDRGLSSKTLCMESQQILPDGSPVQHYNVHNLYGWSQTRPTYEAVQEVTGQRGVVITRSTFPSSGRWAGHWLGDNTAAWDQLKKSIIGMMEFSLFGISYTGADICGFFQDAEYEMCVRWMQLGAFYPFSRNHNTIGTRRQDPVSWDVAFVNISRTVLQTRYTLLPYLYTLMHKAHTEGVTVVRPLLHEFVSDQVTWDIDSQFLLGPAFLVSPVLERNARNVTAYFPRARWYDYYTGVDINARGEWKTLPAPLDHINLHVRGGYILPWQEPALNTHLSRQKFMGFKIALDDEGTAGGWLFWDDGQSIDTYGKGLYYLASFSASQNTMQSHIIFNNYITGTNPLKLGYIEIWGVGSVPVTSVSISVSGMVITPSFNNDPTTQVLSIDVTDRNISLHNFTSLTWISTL
Procedure: as §1, §2

[10] = biological target: T4, human pancreatic α-amylase (HPA) (Homo sapiens, UniProt P04746); experiment: Kinetic analysis of HPA inhibition (CNP-G3 hydrolysis, Morrison / Michaelis-Menten); type: biochemical; details: for Ki / inhibition constant estimated in preliminary tests: preliminary inhibitory studies with remaining material
T4 construct: made in house; host or cells: Pichia pastoris
T4 sequence (P04746 16-511): T1 sequence (P04746 16-511)
Procedure: A detailed protocol of this expression can be found in the work done by Rydberg et al. (39) Expression was carried out in Pichia pastoris. Colonies were grown in 600 mL BMGY media at 30° C. 200 RPM. 20 mL of the overnight culture was added to 600 mL BMGY. After 16 hours the cells were transferred to 300 mL BMMY. After one day 2 mL of 50% methanol was added. The culture was left overnight. The culture supernatant was collected and purified via Phenyl Sepharose™ and Hitrap Q™ columns. Deglycosylation was performed with EndoF™.
Reactions were run with a final [CNPG3]=5 mM. […] Kiapp was then used to calculate Ki.
Given the low-nM estimate of Ki for the natural extract, kinetic analysis could not be pursued through standard Michaelis-Menten kinetics (22). In this study, inhibition constants below 50 nM were determined using the Morrison method: inhibition dose response curves at [S]=KM were constructed for varying enzyme concentrations (23, 24). The resulting data (FIG. 2A) was fit to the Morrison equation 1 to determine Ki,app, which could be converted to Ki through equation 2, which is the relationship between these values for competitive inhibition.

[11] = biological target: T4, human pancreatic α-amylase (HPA); details: from parallel screen; read-out: Ki against HPA; cited from earlier work

In the case of “Ac-CYIYHGVSGIC-NH2 (disulfide 1-11 (inferred); listed as Stichodactyla helianthus) [truncated peptide]”, the “Inhibitory Activity” value (mammalian alpha-amylase) is reported as 30 µM.
In the case of “Ac-YIYH-NH2 (listed as Stichodactyla helianthus) [truncated peptide, Ac represents the acetyl functional group]”, the “mammalian alpha-amylase inhibitory activity (in words)” value (mammalian alpha-amylase) is reported as “did not have detectable” and the “Inhibitory Activity” value (mammalian alpha-amylase) is reported as “no inhibition detected”.
For “Ac-YIYHGVSGI-NH2 (listed as Stichodactyla helianthus) [truncated peptide]”, the “Inhibitory Activity” value (mammalian alpha-amylase) was 25 µM.
With “ESGNSCYIYHGVSGICKASCAEDEKAMAGMGVCEGHLCCYKTPW (listed as Stichodactyla helianthus) [helianthamide, 44 amino acid peptide from the sea anemone Stichodactyla helianthus; natural, synthetic and recombinant forms]” the “intact peptide remaining after acid incubation” value [1] was “a large proportion of intact peptide remained”, the resistance to proteolysis [2] was “resistant to proteolysis” and the Ki (Almond β-glucosidase) was > 1000 nM. The Ki [3] was > 1000 nM, the Ki [4] was > 1000 nM and the Ki [5] was > 1000 nM. The Ki [6] was > 1000 nM, the Ki [7] was > 1000 nM and the Ki (Jack bean α-mannosidase) was > 1000 nM. The Ki [8] was > 1000 nM, the Ki [9] was > 1000 nM and the “Ki / inhibition constant estimated in preliminary tests” value [10] was “low-nM”. The “Ki / inhibition constant estimated in preliminary tests” value ([10]; listed as Helianthamide) was “low nanomolar; also recorded: low nano-molar” and the “mode of HPA inhibition” value ([10]; preliminary tests, natural material) was “reversible competitive inhibition”.
In the case of Montbretin A, the Ki [11] is given as 8 nM.
